Tests used:
[1] = molecular target: T1, NS3h (NS3 helicase domain) (Dengue virus serotype 2 (infectious …, UniProt O09234 1646-2093)); assay: competition
[2] = molecular target: T1, NS3h (NS3 helicase domain); assay: competition; remark: listed apart in the source
[3] = molecular target: T1, NS3h (NS3 helicase domain); assay: fluorescence titration
[4] = molecular target: T1, NS3h (NS3 helicase domain); assay: competition; remark: listed apart in the source
[5] = molecular target: T1, NS3h (NS3 helicase domain); assay: competition; remark: listed apart in the source
[6] = molecular target: T1, NS3h (NS3 helicase domain); assay: EMSA

B1: R20 (ssRNA)
RNA: AGUUGAGUUGAGUUGAGUUG
- Ka [1]: 16.7 ± 0.7 10^6 M-1
- Ka [2]: 0.6 ± 0.1 10^6 M-1

B2: F-p-R12 (ssRNA)
RNA: AGUUGAGUUGAG
- Ka [3]: 20.8 ± 0.5 10^6 M-1

B3: R12 (ssRNA)
RNA: AGUUGAGUUGAG
- Ka [4]: 2.64 ± 0.06 10^6 M-1

B4: (U)12 (ssRNA)
RNA: UUUUUUUUUUUU
- binding result [5]: no binding

B5: R10 (ssRNA)
RNA: AGUUGAGUUG
- Ka [4]: 1.69 ± 0.04 10^6 M-1

B6: R15 (ssRNA)
RNA: AGUUGAGUUGAGUUG
- Ka [4]: 7.4 ± 0.2 10^6 M-1

B7: R18 (ssRNA)
RNA: AGUUGAGUUGAGUUGAGU
- Ka [4]: 11.5 ± 0.3 10^6 M-1

B8: F-p-D20 (ssDNA)
DNA: AGTTGAGTTGAGTTGAGTTG
- binding result [6]: no binding

B9: F-p-R10 (ssRNA)
RNA: AGUUGAGUUG
- Ka [3]: 11.3 ± 0.1 10^6 M-1

Source: paper PMC4191397
